US20060057104A1, “Methods for stimulating tlr irf3 pathways for inducing anti-microbial, anti-inflammatory and anticancer responses” (THE Regents of the University of California Office of the …, priority 2002, published 2006)

B1: recombinant IFN-β: murine rIFN-β (R&D Systems) (protein, UniProt P01575 22-182, looked up)
Interferon beta: INYKQLQLQERTNIRKCQELLEQLNGKINLTYRADFKIPMEMTEKMQKSYTAFAIQEMLQNVFLVFRNNFSSTGWNETIVVRLLDELHQQTVFLKTVLEEKQEERLTWEMSSTALHLKSYYWRVQRYLKLMKYNSYAWMVVRAEIFRNFLIIRRLTRNFQN
B2: CD40L (protein, UniProt P29965 113-261, looked up)
CD40 ligand, soluble form: MQKGDQNPQIAAHVISEASSKTTSVLQWAEKGYYTMSNNLVTLENGKQLTVKRQGLYYIYAQVTFCSNREASSQAPFIASLCLKSPGRFERILLRAANTHSSAKPCGQQSIHLGGVFELQPGASVFVNVTDPSQVSHGTGFTSFGLLKL

How the values were obtained:
BMMs = assay: Quantitative real-time PCR gene expression in BMMs, wild-type and IFNAR deficient (Example 2); type: cell-based, murine; details: rIFN-β 10, 100, 1000 units
Protocol: Murine BMMs were stimulated with poly(I:C) (10 μg/ml) or lipid A (1 ng/ml) for the indicated times. Total RiNA was isolated and converted to cDNA for quantitative real-time PCR analysis using primers specific for IFN-β, IFI-204, IP10, IκBα, or L32. Experiments were repeated three times, and the data are presented in relative expression units on a log scale, as described in Example 2, infra.
Primary macrophage cells derived from bone marrow cells were stimulated with poly I:C (1 μg/ml) or lipid A (1 ng/ml) for the indicated times, as described in Example 2, infra.
(B) TLR3 and TLR4 mRNA levels were also assessed in cells deficient in IFNAR, and cells stimulated with rIFN-β (10, 100, and 1000 U). Experiments were repeated at least two separate times, and data are presented in relative expression units. L32 was used to normalize all samples.
Both wild-type cells and cells deficient in IFNAR were stimulated with poly I:C (1 μg/ml) or lipid A (1 ng/ml) for either 1 or 4 h. IFN-β, IP10, IFI-204, ICAM1, and L32 mRNA levels were assessed. Data are representative of three independent experiments and presented in relative expression units, as described in Example 2, infra.
Murine bone marrow-derived macrophages (BMMs) were differentiated from marrow as previously described (Doyle, S. E., S. A. Vaidya, R. O'Connell, H. Dadgostar, P. W. Dempsey, T.-T. Wu, G. Rao, R. Sun, M. E. Haberland, R. L. Modlin, and G. Cheng. 2002. IRF3 mediates a TLR3/TLR4-specific antiviral gene program. Immunity 17:251). A129 (IFNAR-1^−/−) (Muller, U., U. Steinhoff, L. F. L. Reis, S. Hemmi, J. Pavlovic, R. M. Zinkernagel, and M. Aguet. 1994. Functional role of type I and type II interferons in antiviral defense. Science 264:1918) and B6129SF2/J wild type control mice were obtained from B&K Universal Ltd. and Jackson Laboratories, respectively. C57/B6 mice were used for all experiments not involving the A129 mice (Jackson Laboratories). Specific TLR activation was achieved using F-583 (Rd mutant) E. coli lipid A for TLR4 (Sigma), CpG oligonucleotides for TLR9 (Invitrogen) and poly I:C for TLR3 (Pharmacia). For experiments employing the TIRAP/MAL inhibitory peptide (CN Biosciences), cells were pretreated for 1 hour with 20 μM peptide or DMSO alone. Cells were then stimulated with PAMPs in the presence of the inhibitory peptide. For experiments using murine rIFN-β (R&D Systems), wild-type macrophage cells were stimulated with 10, 100, or 1000 units. Viral infection and harvest was performed using MHV68 at an M.O.I. of 5 as previously described (Doyle, S. E., S. A. Vaidya, R. O'Connell, H. Dadgostar, P. W. Dempsey, T.-T. Wu, G. Rao, R. Sun, M. E. Haberland, R. L. Modlin, and G. Cheng. 2002. IRF3 mediates a TLR3/TLR4-specific antiviral gene program. Immunity 17:251).
RNA was isolated by standard guanidium isothiocyanate methods. cDNA template for quantitative realtime PCR analysis was then synthesized and PCR was performed using the iCycler thermocycler (Bio-Rad) as previously described (Doyle, S. E., S. A. Vaidya, R. O'Connell, H. Dadgostar, P. W. Dempsey, T.-T. Wu, G. Rao, R. Sun, M. E. Haberland, R. L. Modlin, and G. Cheng. 2002. IRF3 mediates a TLR3/TLR4-specific antiviral gene program. Immunity 17:251). IFN-βIP10, IκBα and IFI-204 primers were the same as those previously described (Doyle, S. E., S. A. Vaidya, R. O'Connell, H. Dadgostar, P. W. Dempsey, T.-T. Wu, G. Rao, R. Sun, M. E. Haberland, R. L. Modlin, and G. Cheng. 2002. IRF3 mediates a TLR3/TLR4-specific antiviral gene program. Immunity 17:251). For other genes, the following primers were used: […]

Primary murine B cells = assay: Microarray analysis of primary murine B cells stimulated with LPS or CD40L; type: cell-based; details: LPS 20 μg/mL, soluble CD8/CD40L chimera 300 ng/mL
Protocol: (A) Primary murine B cells were stimulated with LPS (20 μg/mL) or a soluble CD8/CD40L chimera (300 ng/mL) and RNA was collected at indicated time points and used to conduct microarray analysis. […] Expression changes: Red—Induced, Green—Repressed, Black—No Change. Selected time points were hybridized to microarrays in duplicate to ensure reproducibility.
B cell isolation, target preparation, and hybridization using Affymetrix Mu6500 microarrays were performed as described previously (Dadgostar, H., Zarnegar, B., Hoffman, A., Qin, X.-F., Truong, U., Rao, G., Baltimore, D., and Cheng, G. (2002), Proc. Natl. Acad. Sci. USA 99, 1497-1502). Differential expression data was analyzed by Affymetrix Microarray Suite 4.0 software. Average difference change values were then normalized and the genes were clustered by the uncentered correlation average linkage hierarchical clustering algorithm using Cluster. Data was then visualized as a dendogram using Treeview software (www.rana.Ibl.gov/EisenSoftware.htm).
We have conducted a series of microarray experiments to determine gene expression patterns in murine B cells in response to activating stimuli such as LPS and CD40L. […] Genes were hierarchically clustered using average difference change values derived by comparing control samples (media 4h) with samples from cells treated with indicated stimulus.

Molecule	TLR4 mRNA levels (BMMs; wild type cells)	TLR3 mRNA (BMMs; wild-type primary macrophages)	upregulation of genes previously characterized as interferon-responsive (Primary murine B cells)
B1	relatively unaltered	dose dependent upregulation	
B2			not
